In patent US10925971B2, “Methods of treating PRLR positive breast cancer” (Regeneron Pharmaceuticals, Inc., priority 2016, dated 2021):

B1: H1H6960N-DM1 (conjugate)
VH: EVQLVESGGGLVKPGGSLRLSCAASGITFSSYSMNWVRQAPGKGLEWVSSISTRSSLIHYADSVKGRFTISRDNAKNSLYLQMNSLRDEDTAVYYCARWDAAAAFDYWGQGTLVIVSS
VL: DIQLTQSPSFLSASVGDRVTITCWASQGISSYLAWYQQKPGKAPKLLIYVASTLQSGVPSRFSGSGSGTEFTLTISSLQPEDFATYFCQQLNSYPLTFGGGTKVEIK
B2: H1H6762P-DM1 (conjugate)
VH: QVQLVESGGGVVQPGRSLRLSCAASGFTFSHYGMVWVRQPPGKGLEWVALISFDGTTKYYADSVKGRFTISRDNSKNTLYLQMNSLRAEDTAVYFCVGAIAAAAFDLWGRGTLVTVSS
VL: EIVMTQSPATLSVSPGERATLSCRASQSVSSDLAWYQQKPGQAPRLLIYSASARATGIPARFTGSGSGTDFTLTISSLQSEDFAVYYCQQYNNWPMYTFGQGTKLEIK
B3: H1H6803P-DM1 (conjugate)
VH: EVQLVESGGGVVRPGGSLRLSCAASGFKFDDYGMTWVRHVPGKGLEWVSGINWNGGRTGYTDSVKGRFTISRDNAKNSLYLQMNSLRAEDTALYHCAGARRDAFDIWGQGTMVTVSS
VL: DIQMTQSPSSLSASIGDRVTITCRASQNIIKYLNWYQQNAGKAPKLLIYTASSLQSGVPSRFSGSGSGTDFTLTISSLQPEDFATYYCQQSSSSPYTFGQGTKLEIK
B4: H1H6793P-DM1 (conjugate)
VH: EVQLVESGGGLVQPGGSLRLSCAASGFSFSIYAMSWFRQAPGKGLEWVSAINGRGDGTHYADSVKGRFTISRDNSKTTLYLQMSSLRAEDTAVYYCAKPVMSTNGFDIWGQGTMVTVSS
VL: DIQMTQSPSTLSASVGDRVTITCRASQSISSWLAWYQLKPGKAPKLLIYKASNLESGVPSRFSGSGSGTEFTLTISSLQPDDFATYYCQQYNIYWTFGQGTKVEIK
B5: H1H6959N2-DM1 (conjugate)
VH: EVQLVESGGGLVQPGRSLRLSCAASGFTFDDYAMHWVRQAPGKGLEWVSGISWHSGIIGYADSVKGRFTISRDNAKNSLYLQMNSLRTEDAALYYCAKIGSYFYFDSWGQGTLVTVSS
VL: EIVLTQSPGTLSLSPGERATLSCRASQSVSSNYLAWYQQKPGQAPRLLIYGASSRATGIPDRFSGSGSGTDFTLTISRLEPEDFAVYYCQQFGSSGYTFGQGTNLEIK
B6: H1H6975N-DM1 (conjugate)
VH: EVHLVESGGGLVQPGGSLRLSCAASGFTFSSYEMNWVRQTPGKGLEWISHISSRSVIIYYADSVKGRFTISRDNAKNSLFLQMNSLRAEDTAVYFCAGITIFGIPEYWGQGTLVTVSS
VL: EIVLTQSPATLSLSPGERATLSCRASQSVSSYFAWYQQKPGQAPRLLIYDASSRATGIPTRFSGSGSGTDFTLTISSLEPEDFAVYYCQQRSSWPITFGQGTRLEIK

What was measured:
PC3 cells = assay: In vitro cell viability (cell kill) assay, CCK8; assay type: cell-based, human; conditions: Table 11, 3 days
Excerpt: (§1) PRLR-overexpressing cells, including HEK293, PC3, MCF7 and NCI-N87, were generated to assess the ability of anti-PRLR conjugated antibodies to reduce cell viability. For comparative purposes, PC3 and T47D cells with overexpressed ErbB2 were also generated, as well as an MCF7 cell line over-expressing both hPRLR and hErbB2. Briefly, Lipofectamine® 2000-mediated transfection methodology was utilized to generate HEK293 cells expressing human PRLR (HEK293/hPRLR) or human ErbB2 (HEK293/hErbB2). Lipofectamine LTX with Plus Reagent was used to generate PC3 cells expressing human PRLR (PC3/hPRLR) or human ErbB2 (PC3/hErbB2). Lentiviral-mediated transduction was utilized to generate MCF7 cells expressing human PRLR (MCF7/hPRLR), NCI-N87 cells expressing human PRLR (NCI-N87/hPRLR), T47D cells over-expressing human ErbB2 (T47D/hErbB2), and MCF7 cells expressing both human PRLR and human ErbB2 (MCF7/hPRLR/hErbB2). All lines were selected for at least two weeks in complete growth media plus appropriate selection reagents. Stably expressing populations were enriched for PRLR expression via FACS using the anti PRLR antibody Control I.
(§2) Next, the ability of anti-PRLR-DM1 antibody-drug conjugates (i.e., anti-PRLR antibodies conjugated to DM1 via a non-cleavable linker [SMCC]) to reduce cell viability was determined using in vitro cell based assays. Cells were seeded in PDL-coated 96 well plates at 1500 to 10000 cells per well in complete growth media and allowed to grow overnight. For cell viability curves, ADCs or free DM1 (as the methyl disulfide derivative DM1-SMe) were added to the cells at final concentrations ranging from 500 nM to 5 pM and incubated for 3 days. The 293, PC3 and T47D cells were incubated with CCK8 (Dojindo, Rockville, Md.) for the final 1-3 hours and the absorbance at 450 nm (OD450) was determined on a Flexstation3 (Molecular Devices, Sunnyvale, Calif.). MCF7 cells were treated with Hoechst 33342 nuclear stain while being fixed with 4% formaldehyde. Images were acquired on the ImageXpress micro XL (Molecular Devices, Sunnyvale, Calif.) and nuclear counts were determined via Columbus image analysis software (Perkin Elmer, Shelton, Conn.). Background OD450 values (PC3, 293, and T47D) or nuclear counts (MCF7) from digitonin (40 nM) treated cells was subtracted from all wells and viability was expressed as a percentage of the untreated controls. IC50 values were determined from a four-parameter logistic equation over a 10-point response curve (GraphPad Prism).

HEK293 (293) cells = assay: In vitro cell viability (cell kill) assay, CCK8; assay type: cell-based, human; conditions: 293; Table 11; 3 days
Excerpt: as §1, §2

MCF7/PRLR tumors = assay: MCF7/PRLR breast cancer xenograft, tumor size and tumor growth inhibition; assay type: in vivo, NCr nude mice; conditions: for Average Tumor Growth Inhibition (%) / Final Tumor size mm^3 (mean ± SEM): MCF7/PRLR tumors TRIAL #1, NCr Nude mice, Day 52
Excerpt: (§3) Briefly, 20×10^6 MCF7/PRLR cells (ATCC HTB-22 transfected with full length hPRLR as previously described) were implanted subcutaneously into the left mammary fat pad of female NCr nude mice. In other studies, 10×10^6 PC3/PRLR (ATCC CRL-1435 transfected with full length hPRLR as previously described) were implanted subcutaneously into the left flank of male SCID mice. Additionally, 10×10^6 parental T47D (ATCC HTB-133) or 7.5×10^10 T47D #11 cells (ATCC HTB-133 serially passaged in vivo as described below) were subcutaneously implanted into the left flank of female CB17 SCID mice. All mice were obtained from Taconic (Hudson, N.Y.). Each bolus of cells was supplemented with a 90-day estrogen release pellet (1.7 mg/pellet; Innovative Research America, Sarasota Fla.). […] Control reagents included PBS vehicle, free methyl-disulfide DM1 (DM1-SMe) and isotype Control 1-DM1.
(§4) In multi-dose studies, mice were dosed once a week for a total of three weeks with tumor volumes and body weights being monitored twice weekly throughout the study. Test ADCs were dosed at 5 and/or 15 mg/kg in the multi-dose studies. In single-dose studies, mice received a single dose of test ADC, and tumor volumes and body weights were monitored twice weekly throughout the study. Test ADCs were dosed at 1, 2.5, 5, and 15 mg/kg in the single-dose studies. Average tumor size as well as tumor growth inhibition relative to the vehicle treated group were calculated for each group. Tumors were measured with calipers twice a week until the average size of the vehicle group reached 1000 mm^3. Tumor size was calculated using the formula (length×width^2)/2. Tumor growth inhibition was calculated according to the following formula: (1−((Tfinal−Tinitial)/(Cfinal−Cinitial)))*100, where T (treated group) and C (control group) represent the mean tumor mass on the day the vehicle group reached 1000 mm^3. […] Results are summarized in Tables 21-25 (multi-dose) and Table 26 (single dose). (NT=not tested in the particular experiment shown).

PC3/PRLR tumors = assay: PC3/PRLR xenograft, tumor size and tumor growth inhibition; assay type: in vivo, SCID mice
Excerpt: as §3, §4

[1] = PC3/PRLR tumors TRIAL #1, SCID mice, multi-dose 5 mg/kg, Day 63

Molecule | % Kill (PC3 cells) | IC50 (PC3 cells) | IC50 (HEK293 (293) cells) | % Kill (HEK293 (293) cells) | other results
B1 | 80% | 150 nM | 75 nM | – | –
B2 | 78% | 250 nM | – | 89% | –
B3 | 72% | – | – | 7% | –
B4 | 72% | 200 nM | 100 nM | 84% | –
B5 | 79% | 150 nM | 75 nM | – | –
B6 | 71% | – | – | – | Average Tumor Growth Inhibition (%) (MCF7/PRLR tumors; multi-dose 5 mg/kg): 118%; Final Tumor size mm^3 (mean ± SEM) (MCF7/PRLR tumors; multi-dose 5 mg/kg): 125 ± 46 mm^3; Average Tumor Growth Inhibition (%) (MCF7/PRLR tumors; multi-dose 15 mg/kg): 135%; Final Tumor size mm^3 (mean ± SEM) (MCF7/PRLR tumors; multi-dose 15 mg/kg): 0 ± 0 mm^3; MCF7/PRLR tumor growth (MCF7/PRLR tumors; first multi-dose trial, 5 and 15 mg/kg): potently inhibited MCF7/PRLR tumor growth; Average Tumor Growth Inhibition (%) (PC3/PRLR tumors; [1]): 31%; Final Tumor size mm^3 (mean ± SEM) (PC3/PRLR tumors; [1]): 973 ± 169 mm^3; Final Tumor size mm^3 (mean ± SEM) (PC3/PRLR tumors; PC3/PRLR tumors TRIAL #1, SCID mice, multi-dose 15 mg/kg, Day 63): 895 ± 63 mm^3; PC3/PRLR tumor growth (PC3/PRLR tumors; multi-dose, especially at 15 mg/kg): demonstrated inhibition of tumor growth
